Data published in patent US20110135636A1 (SYMPHOGEN A S, published 2011).

Experiments:
[1] = biological target: T1, recombinant human EGFR extracellular domain with 6xHis (human, UniProt P00533 25-645); assay: SPR competition, competitor 1030corr
T1 construct: In-house produced; also called 6xHis EGFR ECD; soluble human EGFR ECD; not shown: 6xHis tag
Method: (§1) SPR analysis was performed on a Biacore 3000 machine containing four flow cells. A CM5 Biacore chip was conjugated with 10,000 Resonance units (Ru) polyclonal anti-His antibody to flow cells 1-4 according to the manufacturer's instructions. […] Immediately after antigen injection the maximal binding of the Anti-EGFR mAb without competition was established in each flow cell during a reference run. Briefly 5 μl antibody at a concentration of 40 μg/ml was injected over all flow cells with captured EGFR followed by stripping of the antibody/antigen complex with a low pH acid wash (10 sec. contact time with 10 mM Glycine-HCl, pH2). After the determination of Anti-EGFR antibody maximal binding to each flow cell, a competition run was performed during the same Biacore cycle. Flow cells were first saturated with EGFR ECD antigen followed by injection of different reference antibodies or Anti-EGFR antibodies into separate flow cells using the same antigen saturating conditions as outlined above. This step was immediately followed by a second injection of Anti-EGFR antibody over the flow cell saturated with EGFR antigen and competition antibody to minimize the dissociation of either antigen or blocking antibody. Then the antibody/antigen complexes were stripped off with a low pH acid wash (10 sec. contact time with 10 mM Glycine-HCl, pH 2) and the whole cycle beginning with the reference run was repeated with a new Anti-EGFR antibody. The degree of inhibition of tested Anti-EGFR antibodies were determined by comparing the Ru max value of the individual Anti-EGFR antibody before and after competition by introduction of report points recorded two seconds before and after injection of each sample.

[2] = biological target: T1, recombinant human EGFR extracellular …; assay: SPR competition, competitor Erbitux
Method: as §1

[3] = biological target: T1, recombinant human EGFR extracellular …; assay: SPR competition, competitor 1260
Method: as §1

[4] = biological target: T1, recombinant human EGFR extracellular …; assay: SPR competition, competitor Erbitux; remark: listed apart in the source
Method: as §1

[5] = biological target: T1, recombinant human EGFR extracellular …; assay: SPR competition, competitor Ab-11
Method: as §1

[6] = biological target: T1, recombinant human EGFR extracellular …; assay: SPR competition, competitor 1261
Method: as §1

[7] = biological target: T1, recombinant human EGFR extracellular …; assay: SPR competition, competitor 1347
Method: as §1

[8] = biological target: T1, recombinant human EGFR extracellular …; assay: SPR competition, competitor Vectibix
Method: as §1

[9] = biological target: T1, recombinant human EGFR extracellular …; assay: SPR competition, competitor 1024
Method: as §1

[10] = biological target: T1, recombinant human EGFR extracellular …; assay: SPR competition, competitor ICR10
Method: as §1

[11] = biological target: T1, recombinant human EGFR extracellular …; assay: SPR competition, competitor 1284
Method: as §1

[12] = biological target: T1, recombinant human EGFR extracellular …; assay: SPR competition, competitor Ab-5
Method: as §1

[13] = biological target: T1, recombinant human EGFR extracellular …; assay: SPR competition, competitor Ab-1
Method: as §1

[14] = biological target: T1, recombinant human EGFR extracellular …; assay: SPR competition, competitor 992 corr
Method: as §1

[15] = biological target: T1, recombinant human EGFR extracellular …; assay: SPR competition, competitor Ab-10
Method: as §1

[16] = biological target: T1, recombinant human EGFR extracellular …; assay: SPR competition, competitor 1320
Method: as §1

[17] = biological target: T1, recombinant human EGFR extracellular …; assay: SPR competition, competitor 1208
Method: as §1

[18] = biological target: T1, recombinant human EGFR extracellular …; assay: SPR competition, competitor 1277
Method: as §1

[19] = biological target: T1, recombinant human EGFR extracellular …; assay: SPR competition, competitor Vectibix; remark: listed apart in the source
Method: as §1

[20] = biological target: T1, recombinant human EGFR extracellular …; assay: SPR competition, competitor Ab-3
Method: as §1

[21] = biological target: T1, recombinant human EGFR extracellular …; assay: SPR competition, competitor 1257
Method: as §1

[22] = biological target: T1, recombinant human EGFR extracellular …; assay: SPR competition, competitor 1254
Method: as §1

[23] = biological target: T1, recombinant human EGFR extracellular …; assay: SPR competition, competitor 1344
Method: as §1

B1: antibody 1257 (antibody, human IgG1, kappa, V domains shown)
VH: EVQLQQSGPELVKPGASVKIPCKTSGYTFTDYNMAWVKQSHGKSLEWIGDIIPNNGGAIYNQKFKGKATLTVDKSSSTASMELRSLTSEDTAVYFCARKNIYYRYDGAGALDYWGQGTSVTVSS
VL: QIVLTQSPAIMSASPGEKVTMTCSASSSVSYIYWYQQKPGSSPRLLIYDASNLASGVPVRFSGSGSGTSYSLTISRMEAEDAATYYCQQWSSYPITFGSGTKLEIKR
notes: Chimeric IgG1 kappa
% inhibition [1]: 4%
% inhibition [2]: 0%
% inhibition [3]: 68%
% inhibition [4]: 0%
% inhibition [5]: 100%
% inhibition [6]: 103%
% inhibition [7]: 21%
% inhibition [8]: -2%
% inhibition [9]: 17%
% inhibition [10]: 22%
% inhibition [11]: 16%
% inhibition [12]: -5%
% inhibition [13]: -1%
% inhibition [14]: 16%
% inhibition [15]: 1%
% inhibition [16]: 15%
% inhibition [17]: 17%
% inhibition [18]: 11%
% inhibition [19]: 15%
% inhibition [20]: 85%
% inhibition [21]: 90%
% inhibition [22]: 8%
% inhibition [23]: 80%

B2: antibody 1208 (antibody, human IgG1, kappa, V domains shown)
VH: EVQLVESGGGLVKPGGSLKLSCAASGFAFSSYDMSWVRQTPEKRLEWVAYIGSGDDNTHYPDSVKGRFTISRHNAKNTLYLQMSSLKSEDTAMYYCARQKYGNYGDTMDYWGQGTSVTVSS
VL: DVVMTQTPLSLPVSLGDQASISCRSSQSLVHSNGNTYLHWYLQKPGQSPKLLIYKVSNRFSGVPDRFSGSGSGTDFTLKISRVEAEDLGVYFCSQSTHVPTFGGGTKLEIKR
notes: Chimeric IgG1 kappa; also called clone 1208
% inhibition [1]: 27%
% inhibition [2]: 18%
% inhibition [3]: 4%
% inhibition [4]: 18%
% inhibition [5]: 4%
% inhibition [6]: 13%
% inhibition [7]: 4%
% inhibition [8]: 29%
% inhibition [9]: 3%
% inhibition [10]: 5%
% inhibition [11]: 4%
% inhibition [12]: 66%
% inhibition [13]: 37%
% inhibition [14]: 100%
% inhibition [15]: 32%
% inhibition [16]: 30%
% inhibition [17]: 78%
% inhibition [18]: 40%
% inhibition [19]: 25%
% inhibition [20]: 5%
% inhibition [21]: 9%
% inhibition [22]: 33%
% inhibition [23]: 7%

B3: antibody 1030 (antibody, human IgG1, kappa, V domains shown)
VH: EVQLVESGGGLVKPGGSLKLSCAASGFTFSSYALSWVRQTPERRLEWVASISGVGSTYFPDSVKGRFTMSRDNARNILYLQMSSLRSEDTAMYYCARGSDGYFYAMDYWGQGTSVTVSS
VL: DIVLTQSPASLAVSLGQRATISCRASKSVSTSGYSFMHWYQLKPGQPPKLLIYLASNLESGVPARFSGSGSGTDFTLNIHPVEEEDAATYYCQHSREFPLTFGGGTKLEIKR
notes: Chimeric IgG1 kappa
% inhibition [1]: 89%
% inhibition [2]: -1%
% inhibition [3]: 16%
% inhibition [4]: -1%
% inhibition [5]: -5%
% inhibition [6]: 8%
% inhibition [7]: 6%
% inhibition [8]: 16%
% inhibition [9]: -1%
% inhibition [10]: 54%
% inhibition [11]: 32%
% inhibition [12]: 104%
% inhibition [13]: 98%
% inhibition [14]: -3%
% inhibition [15]: 84%
% inhibition [16]: 4%
% inhibition [17]: 112%
% inhibition [18]: 103%
% inhibition [19]: 17%
% inhibition [20]: 6%
% inhibition [21]: 5%
% inhibition [22]: 107%
% inhibition [23]: 24%

B4: antibody 992 (antibody, human IgG1, kappa, V domains shown)
VH: EVQLQQPGSELVRPGASVKLSCKASGYTFTSYWMHWVKQRPGQGLEWIGNIYPGSRSTNYDEKFKSKATLTVDTSSSTAYMQLSSLTSEDSAVYYCTRNGDYYVSSGDAMDYWGQGTSVTVSS
VL: DIQMTQTTSSLSASLGDRVTISCRTSQDIGNYLNWYQQKPDGTVKLLIYYTSRLHSGVPSRFSGSGSGTDFSLTINNVEQEDVATYFCQHYNTVPPTFGGGTKLEIKR
notes: Chimeric mouse/human IgG1 kappa; the VL entry includes the human kappa constant region
% inhibition [1]: -18%
% inhibition [2]: 90%
% inhibition [3]: -10%
% inhibition [4]: 90%
% inhibition [5]: -3%
% inhibition [6]: -13%
% inhibition [7]: 7%
% inhibition [8]: 106%
% inhibition [9]: -55%
% inhibition [10]: -4%
% inhibition [11]: 6%
% inhibition [12]: 1%
% inhibition [13]: 99%
% inhibition [14]: 96%
% inhibition [15]: -4%
% inhibition [16]: -38%
% inhibition [17]: 109%
% inhibition [18]: 110%
% inhibition [19]: 125%
% inhibition [20]: 7%
% inhibition [21]: 16%
% inhibition [22]: 128%
% inhibition [23]: 9%

B5: antibody 1024 (antibody, human IgG1, kappa, V domains shown)
VH: QVQLQQPGAELVEPGGSVKLSCKASGYTFTSHWMHWVKQRPGQGLEWIGEINPSSGRNNYNEKFKSKATLTVDKSSSTAYMQFSSLTSEDSAVYYCVRYYGYDEAMDYWGQGTSVTVSS
VL: DIVMTQAAFSNPVTLGTSASISCRSSKSLLHSNGITYLYWYLQKPGQSPQLLIYQMSNLASGVPDRFSSSGSGTDFTLRISRVEAEDVGVYYCAQNLELPYTFGGGTKLEIKR
notes: Chimeric IgG1 kappa
% inhibition [1]: 3%
% inhibition [2]: 104%
% inhibition [3]: 35%
% inhibition [4]: 104%
% inhibition [5]: -13%
% inhibition [6]: -27%
% inhibition [7]: 2%
% inhibition [8]: 102%
% inhibition [9]: 96%
% inhibition [10]: -3%
% inhibition [11]: -2%
% inhibition [12]: 0%
% inhibition [13]: 6%
% inhibition [14]: -58%
% inhibition [15]: -5%
% inhibition [16]: 86%
% inhibition [17]: -7%
% inhibition [18]: -1%
% inhibition [19]: 82%
% inhibition [20]: 0%
% inhibition [21]: 22%
% inhibition [22]: 5%
% inhibition [23]: 1%
